Data as given in article PMC8998336, “Structural and Biophysical Insights into SPINK1 Bound to Human Cationic Trypsin” (International Journal of Molecular Sciences, 2022).

How the values were obtained:
Conditions in all cases: both partners purified
[1] = target: T1, human cationic trypsin (TRY1) p.S200A (human, UniProt P07477 24-247, p.S200A); experiment: ITC; MicroCal PEAQ-ITC, 37 °C; TRY1 p.S200A in the cell at 5-10 µM, SPINK1 in the syringe at 50-100 µM; 20 mM Hepes pH 7.4, 150 mM NaCl, 2 mM CaCl2; one-site binding model
T1 construct: human cationic trypsin (TRY1); cloned as amino acids 16-247 (signal peptide removed); His6-tag and propeptide removed after enterokinase digestion; the final structure contains amino acids 24-247; catalytic serine replaced by alanine; also called TRY1 S200A; not shown: His6, N-terminal, cleaved

[2] = target: T1, human cationic trypsin (TRY1) p.S200A; experiment: SPR; BIAcore T200, TRY1 p.S200A amine-coupled to a CM5 chip; SPINK1 3.125-50 nM, single-cycle kinetics, 37 °C, 50 µL/min; 20 mM Hepes pH 7.4, 150 mM NaCl, 2 mM CaCl2, 0.05% Tween20; 1:1 Langmuir model
[3] = target: T2, human cationic trypsin (TRY1) WT (human, UniProt P07477 24-247); experiment: enzyme inhibition assay (Morrison tight-binding fit); 100 pM TRY1, 1 mM L-BAPA, SPINK1 15.625-2000 pM; 20 mM Hepes pH 7.4, 150 mM NaCl, 2 mM CaCl2, 0.05% Tween20; 37 °C; initial rates after a 5 h lag phase; Morrison's quadratic equation
T2 construct: human cationic trypsin (TRY1); cloned as amino acids 16-247 (signal peptide removed); His6-tag and propeptide removed after enterokinase digestion; not shown: His6, N-terminal, cleaved

B1: serine protease inhibitor Kazal-type 1 (SPINK1) WT (natural protein, human, UniProt P00995 24-79, looked up)
chain: DSLGREAKCYNELNGCTKIYDPVCGTDGNTYPNECVLCFENRKRQTSILIQKSGPC
notes: N-terminal truncation removes the signal peptide; pET47b construct with His6-tag and HRV3C cleavage site; source: SHuffle T7 Express E. coli, purified (HisTrap HP, HRV3C digestion, His6-tag removed on the same HisTrap column); not shown: His6, N-terminal, cleaved
For B1, the dH [1] was roughly -10 kcal/mol, the “half-life t1/2 of the complex” value [2] was roughly 1 h and the kon [2] was 250000 M⁻¹ s⁻¹. It also gave a Ki [3] of less than 50 pM.

B2: serine protease inhibitor Kazal-type 1 (SPINK1) p.N34S (natural protein, human, UniProt P00995 24-79, looked up)
chain: DSLGREAKCYSELNGCTKIYDPVCGTDGNTYPNECVLCFENRKRQTSILIQKSGPC
notes: made by site directed mutagenesis; pET47b construct with His6-tag and HRV3C cleavage site; also called SPINK1 N34S; p.N34S mutant; source: SHuffle T7 Express E. coli, purified (HisTrap HP, HRV3C digestion, His6-tag removed on the same HisTrap column); not shown: His6, N-terminal, cleaved
In the case of B2, the dH [1] is reported as roughly -10 kcal/mol, the “half-life t1/2 of the complex” value [2] is reported as roughly 1 h and the kon [2] is reported as 250000 M⁻¹ s⁻¹. It also gave a Ki [3] of less than 50 pM.
